Laboratory results taken from paper PMC12098916, “Modelling POLG mutations in mice unravels a critical role of POLγΒ in regulating phenotypic severity”.

Experiments:
[1] = target: mouse DNA polymerase γ catalytic subunit, wild type (mPolγA^WT) (mouse) (UniProt P54099); assay: thermal shift assay (thermofluor, SYPRO Orange); 0.5 µM PolγA with or without 0.75 µM PolγB (1:1.5), mixed on ice for 5 min; 20 mM Tris pH 8, 1 mM DTT, final NaCl 175 ± 50 mM; 4 to 95 °C in steps of 0.5 °C
[2] = target: mouse DNA polymerase γ catalytic subunit, Y933C variant (mPolγA^Y933C) (mouse) (UniProt P54099); assay: as above
[3] = target: human POLγA (hPOLγA WT);human POLγB (hPOLγB) (Homo sapiens;Homo sapiens, UniProt P54098;Q9UHN1 26-1239;26-485, |); assay: EMSA; 10 uM ddCTP; value in Supp Fig 13f not in material; EMSA: 25 mM Tris-HCl pH 8.0, ~30 mM NaCl, 1 mM TCEP, 0.1 mg/ml BSA, 10% glycerol, 10 uM ddCTP, 0.5 nM DNA, 6.6 nM POLγB dimer, ice 10 min then room temperature; settings: protein: recombinant;recombinant; tags: 6xHis;6xHis; copies: 1;2; label: 32P 5' on 21-mer; 21 bp, 15 nt 5' overhang on strand 1
[4] = target: T1, mouse PolγA (mPolγA WT);mouse PolγB (mPolγB) (Mus musculus;Mus musculus, UniProt P54099;Q9QZM2 26-1218;1-459, |); assay: EMSA; 10 uM ddCTP; value in Supp Fig 13f not in material; marginally weaker than human; EMSA: 25 mM Tris-HCl pH 8.0, ~30 mM NaCl, 1 mM TCEP, 0.1 mg/ml BSA, 10% glycerol, 10 uM ddCTP, 0.5 nM DNA, 6.6 nM POLγB dimer, ice 10 min then room temperature; settings: protein: recombinant;recombinant; tags: 6xHis;6xHis; copies: 1;2; label: 32P 5' on 21-mer; 21 bp, 15 nt 5' overhang on strand 1
[5] = target: T1, mouse PolγA (mPolγA WT);mouse PolγB …; assay: cryo-EM; R (replication) conformer; 10 mM Ca2+, 0.2 mM dCTP; EMSA: 25 mM Tris-HCl pH 8.0, ~30 mM NaCl, 1 mM TCEP, 0.1 mg/ml BSA, 10% glycerol, 10 uM ddCTP, 0.5 nM DNA, 6.6 nM POLγB dimer, ice 10 min then room temperature; settings: protein: recombinant;recombinant; tags: 6xHis;6xHis; copies: 1;2; 15 nt 5' overhang on strand 1; single mismatch at primer 3' end
[6] = target: mouse PolγA (mPolγA WT);human POLγB (hPOLγB) (Mus musculus;Homo sapiens, UniProt P54099;Q9UHN1 26-1218;26-485, |); assay: cryo-EM; chimera mAhB, human-like E conformer; 10 mM Ca2+, 0.2 mM dCTP; EMSA: 25 mM Tris-HCl pH 8.0, ~30 mM NaCl, 1 mM TCEP, 0.1 mg/ml BSA, 10% glycerol, 10 uM ddCTP, 0.5 nM DNA, 6.6 nM POLγB dimer, ice 10 min then room temperature; settings: protein: recombinant;recombinant; tags: 6xHis;6xHis; copies: 1;2; 15 nt 5' overhang on strand 1; single mismatch at primer 3' end
mouse PolγA (mPolγA WT);human POLγB (hPOLγB), sequence (P54099 26-1218, chain 1 of 2): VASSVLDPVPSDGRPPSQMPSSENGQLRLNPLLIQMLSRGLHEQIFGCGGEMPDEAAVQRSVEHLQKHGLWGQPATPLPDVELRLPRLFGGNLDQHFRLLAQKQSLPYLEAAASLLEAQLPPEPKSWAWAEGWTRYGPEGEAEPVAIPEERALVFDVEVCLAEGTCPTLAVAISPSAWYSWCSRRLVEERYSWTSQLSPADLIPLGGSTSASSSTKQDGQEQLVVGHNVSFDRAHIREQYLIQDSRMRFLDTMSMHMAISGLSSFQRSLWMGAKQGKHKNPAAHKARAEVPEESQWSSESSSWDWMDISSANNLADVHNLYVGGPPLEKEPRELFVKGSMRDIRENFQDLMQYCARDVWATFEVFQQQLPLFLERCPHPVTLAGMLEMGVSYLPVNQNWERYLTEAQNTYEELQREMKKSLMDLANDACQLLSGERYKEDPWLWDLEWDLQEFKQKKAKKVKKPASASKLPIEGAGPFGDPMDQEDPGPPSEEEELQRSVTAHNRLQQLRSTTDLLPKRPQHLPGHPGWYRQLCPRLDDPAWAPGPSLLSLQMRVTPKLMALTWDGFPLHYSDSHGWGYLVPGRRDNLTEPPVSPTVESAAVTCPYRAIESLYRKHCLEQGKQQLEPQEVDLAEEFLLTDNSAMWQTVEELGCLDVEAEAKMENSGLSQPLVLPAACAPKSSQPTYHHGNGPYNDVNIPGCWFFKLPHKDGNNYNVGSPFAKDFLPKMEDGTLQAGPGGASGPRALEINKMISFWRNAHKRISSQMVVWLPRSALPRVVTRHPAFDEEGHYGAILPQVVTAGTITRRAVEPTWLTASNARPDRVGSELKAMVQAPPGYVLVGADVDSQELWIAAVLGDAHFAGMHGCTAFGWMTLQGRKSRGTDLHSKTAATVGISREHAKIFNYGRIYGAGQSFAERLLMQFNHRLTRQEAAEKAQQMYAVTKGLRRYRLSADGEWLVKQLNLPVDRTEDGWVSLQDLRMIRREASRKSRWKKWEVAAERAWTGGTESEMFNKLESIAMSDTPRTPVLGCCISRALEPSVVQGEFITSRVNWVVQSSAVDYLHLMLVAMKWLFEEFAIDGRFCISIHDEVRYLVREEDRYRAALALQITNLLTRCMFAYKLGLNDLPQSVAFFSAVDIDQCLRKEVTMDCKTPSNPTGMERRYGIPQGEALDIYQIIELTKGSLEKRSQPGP
mouse PolγA (mPolγA WT);human POLγB (hPOLγB), sequence (Q9UHN1 26-485, chain 2 of 2): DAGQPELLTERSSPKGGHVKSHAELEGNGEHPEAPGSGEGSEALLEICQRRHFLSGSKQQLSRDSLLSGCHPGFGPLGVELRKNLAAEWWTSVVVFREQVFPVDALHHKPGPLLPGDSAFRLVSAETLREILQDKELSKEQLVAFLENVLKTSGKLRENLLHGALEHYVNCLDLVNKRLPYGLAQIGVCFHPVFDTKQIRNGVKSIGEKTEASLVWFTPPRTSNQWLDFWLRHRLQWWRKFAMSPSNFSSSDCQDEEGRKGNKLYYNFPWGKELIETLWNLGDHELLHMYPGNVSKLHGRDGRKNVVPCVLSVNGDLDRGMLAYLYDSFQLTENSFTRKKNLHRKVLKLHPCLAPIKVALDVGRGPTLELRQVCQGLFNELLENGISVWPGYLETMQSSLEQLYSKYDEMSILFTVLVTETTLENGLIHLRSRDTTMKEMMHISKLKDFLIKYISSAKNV

T1 sequence (P54099 26-1218, chain 1 of 2): as the sequence (P54099 26-1218, chain 1 of 2) above
T1 sequence (Q9QZM2 whole entry, chain 2 of 2): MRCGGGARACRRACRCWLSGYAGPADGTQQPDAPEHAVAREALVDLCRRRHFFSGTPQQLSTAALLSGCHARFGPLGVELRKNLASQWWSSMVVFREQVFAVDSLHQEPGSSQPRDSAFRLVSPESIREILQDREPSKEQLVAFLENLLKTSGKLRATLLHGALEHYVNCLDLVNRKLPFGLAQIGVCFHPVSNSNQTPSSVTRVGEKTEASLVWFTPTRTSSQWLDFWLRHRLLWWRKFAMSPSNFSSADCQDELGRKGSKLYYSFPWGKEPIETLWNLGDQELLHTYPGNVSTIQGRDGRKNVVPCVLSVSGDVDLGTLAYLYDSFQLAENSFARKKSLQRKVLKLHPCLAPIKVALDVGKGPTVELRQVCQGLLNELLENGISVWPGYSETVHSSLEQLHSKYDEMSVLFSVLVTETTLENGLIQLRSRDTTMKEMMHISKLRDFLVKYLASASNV
mouse DNA polymerase γ catalytic subunit, wild type (mPolγA^WT) (mouse), sequence (P54099 whole entry): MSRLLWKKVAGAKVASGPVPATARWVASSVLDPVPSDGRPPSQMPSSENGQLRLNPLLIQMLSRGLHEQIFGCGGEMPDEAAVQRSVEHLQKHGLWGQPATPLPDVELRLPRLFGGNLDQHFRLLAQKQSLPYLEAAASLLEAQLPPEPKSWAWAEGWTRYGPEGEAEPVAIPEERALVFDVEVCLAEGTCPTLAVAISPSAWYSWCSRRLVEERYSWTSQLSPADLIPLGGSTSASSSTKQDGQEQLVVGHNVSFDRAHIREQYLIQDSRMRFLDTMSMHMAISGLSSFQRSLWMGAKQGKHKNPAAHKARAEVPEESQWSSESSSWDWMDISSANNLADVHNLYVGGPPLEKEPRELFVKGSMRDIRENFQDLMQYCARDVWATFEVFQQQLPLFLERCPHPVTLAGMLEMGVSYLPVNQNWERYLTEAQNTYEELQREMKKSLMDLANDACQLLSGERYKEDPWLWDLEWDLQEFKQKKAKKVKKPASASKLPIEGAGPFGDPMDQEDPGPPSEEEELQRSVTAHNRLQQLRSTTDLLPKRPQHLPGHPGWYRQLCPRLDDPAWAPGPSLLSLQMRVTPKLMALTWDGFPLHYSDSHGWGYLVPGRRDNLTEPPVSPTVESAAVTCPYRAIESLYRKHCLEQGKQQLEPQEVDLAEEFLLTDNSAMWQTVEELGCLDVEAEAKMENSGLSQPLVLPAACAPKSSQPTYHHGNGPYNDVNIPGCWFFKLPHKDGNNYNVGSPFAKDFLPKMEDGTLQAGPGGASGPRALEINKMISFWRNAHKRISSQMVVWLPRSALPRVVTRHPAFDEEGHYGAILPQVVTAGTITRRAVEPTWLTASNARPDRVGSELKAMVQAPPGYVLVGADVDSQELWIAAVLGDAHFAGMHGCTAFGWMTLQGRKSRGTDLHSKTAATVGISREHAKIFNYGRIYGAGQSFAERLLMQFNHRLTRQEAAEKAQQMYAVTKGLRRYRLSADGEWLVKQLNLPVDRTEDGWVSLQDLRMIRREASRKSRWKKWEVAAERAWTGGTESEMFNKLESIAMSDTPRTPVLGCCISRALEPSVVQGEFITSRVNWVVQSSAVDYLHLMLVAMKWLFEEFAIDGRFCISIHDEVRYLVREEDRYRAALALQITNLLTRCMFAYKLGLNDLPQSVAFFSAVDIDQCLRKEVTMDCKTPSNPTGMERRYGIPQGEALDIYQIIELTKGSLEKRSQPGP
human POLγA (hPOLγA WT);human POLγB (hPOLγB), sequence (P54098 26-1239, chain 1 of 2): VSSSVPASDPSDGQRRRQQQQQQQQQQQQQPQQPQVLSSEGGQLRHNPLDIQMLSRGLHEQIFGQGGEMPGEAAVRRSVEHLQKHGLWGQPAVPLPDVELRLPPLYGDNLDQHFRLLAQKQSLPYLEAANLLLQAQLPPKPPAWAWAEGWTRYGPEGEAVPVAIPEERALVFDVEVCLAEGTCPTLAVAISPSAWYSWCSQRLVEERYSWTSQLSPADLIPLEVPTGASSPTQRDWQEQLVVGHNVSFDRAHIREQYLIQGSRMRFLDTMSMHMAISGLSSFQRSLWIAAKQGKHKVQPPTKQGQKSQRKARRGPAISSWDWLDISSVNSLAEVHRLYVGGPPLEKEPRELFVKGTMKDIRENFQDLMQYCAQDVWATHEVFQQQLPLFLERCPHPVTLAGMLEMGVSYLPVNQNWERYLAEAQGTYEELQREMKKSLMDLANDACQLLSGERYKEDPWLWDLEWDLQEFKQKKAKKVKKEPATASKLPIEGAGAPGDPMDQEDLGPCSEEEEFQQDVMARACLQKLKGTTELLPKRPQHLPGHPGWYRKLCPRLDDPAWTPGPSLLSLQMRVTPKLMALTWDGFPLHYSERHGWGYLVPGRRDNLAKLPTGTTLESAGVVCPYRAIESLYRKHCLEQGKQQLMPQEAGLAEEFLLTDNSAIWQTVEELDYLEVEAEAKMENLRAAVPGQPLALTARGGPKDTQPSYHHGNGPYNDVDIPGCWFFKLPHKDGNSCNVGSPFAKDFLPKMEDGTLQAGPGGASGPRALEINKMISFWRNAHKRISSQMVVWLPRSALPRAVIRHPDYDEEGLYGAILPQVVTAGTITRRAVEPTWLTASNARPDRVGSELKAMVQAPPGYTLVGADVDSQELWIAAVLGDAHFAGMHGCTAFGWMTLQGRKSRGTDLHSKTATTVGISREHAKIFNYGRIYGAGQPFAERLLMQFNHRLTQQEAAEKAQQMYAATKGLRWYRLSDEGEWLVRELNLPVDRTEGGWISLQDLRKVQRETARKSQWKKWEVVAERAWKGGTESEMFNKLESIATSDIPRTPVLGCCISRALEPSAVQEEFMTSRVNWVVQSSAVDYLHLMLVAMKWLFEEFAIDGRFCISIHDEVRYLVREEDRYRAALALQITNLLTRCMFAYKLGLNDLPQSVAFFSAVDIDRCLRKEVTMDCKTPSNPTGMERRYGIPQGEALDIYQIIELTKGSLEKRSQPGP
human POLγA (hPOLγA WT);human POLγB (hPOLγB), sequence (Q9UHN1 26-485, chain 2 of 2): as the sequence (Q9UHN1 26-485, chain 2 of 2) above
mouse DNA polymerase γ catalytic subunit, Y933C variant (mPolγA^Y933C) (mouse), sequence (P54099 whole entry Y934C): as the sequence (P54099 whole entry) above, with Y934C counted along it

Molecule: mouse DNA polymerase γ accessory subunit, wild type (mPolγB^WT)
- increase in Tm of PolγA in complex with PolγB [1]: 9 °C

Molecule: mouse DNA polymerase γ accessory subunit, wild type (mPolγB^WT) (natural protein)
- increase in Tm of PolγA in complex with PolγB [2]: 9 °C

B1: EMSA primer-template 36/21 (dsDNA)
DNA 1: TTTTTTTTTTATCCGGGCTCCTCTAGACTCGACCGC
DNA 2: GCGGTCGAGTCTAGAGGAGCC
- binding result [3]: binds
- binding result [4]: binds

B2: cryo-EM primer-template 40/25 with 3' mismatch (dsDNA)
DNA 1: TTTTTTTTTTATCCGGGCTCCTCTAGACTCGACCGCATGC
DNA 2: GCATGCGGTCGAGTCTAGAGGAGCT
- binding result [5]: binds
- binding result [6]: binds
